Assay results as given in patent publication US20190330277A1.

Biological target: bRSV ATue51908 postF (bovine respiratory syncytial virus, strain ATue51908), P22167
Assay: biolayer interferometry (Octet), variant on Ni-NTA tip, Fab in solution
Details: remark: other sources report otherwise

B1: MPE8 Fab (Fab, V domains shown)
VH: EVQLVESGGGLVKPGGSLRLSCAASGFTFSSYSMNWVRQAPGKGLEWVSSISASSSYSDYADSAKGRFTISRDNAKTSLFLQMNSLRAEDTAIYFCARARATGYSSITPYFDIWGQGTLVTVSS
VL: QSVVTQTPSVSGAPGQRVTISCTGSSSNIGAGYDVHWYQQLPGTAPKLLIYDNNNRPSGVPDRFSASKSGTSASLAITGLQAEDEADYYCQSYDRNLSGVFGTGTKVTVL
  Kd: > 1000 nM
